Experimental data: patent US20230096452A1 (SHANGHAI ESCUGEN BIOTECHNOLOGY, published 2023)

T1: mouse claudin 18.2 (mCLDN18.2) (mouse, UniProt P56857 10-264)
T1 construct: the stomach-type (A2) isoform is meant; also called m hCLDN18.2; HEK293-mCLDN18.2
T1 chain: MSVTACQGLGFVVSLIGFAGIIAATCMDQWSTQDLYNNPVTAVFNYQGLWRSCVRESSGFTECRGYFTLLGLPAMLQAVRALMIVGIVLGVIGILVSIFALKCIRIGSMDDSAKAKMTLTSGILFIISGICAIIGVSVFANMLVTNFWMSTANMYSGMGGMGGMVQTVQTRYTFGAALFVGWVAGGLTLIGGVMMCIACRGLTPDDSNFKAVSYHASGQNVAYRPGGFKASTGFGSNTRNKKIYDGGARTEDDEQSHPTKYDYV


Assays:
[1] = biological target: T2, human claudin 18.2 (hCLDN18.2) (human); test: flow cytometry on HEK293-hCLDN18.2 cells; 0.2 ug/mL; not heat treated
T2 construct: also called CLDN18 splice variant 2; HEK293-hCLDN18.2
Description: (§1) The well-grown HEK293-hCLDN18.2 stably transfected cell line and the hCLDN18.2 low-expressing KATOIII human gastric cancer cell line sorted and enriched by flow cytometry were digested with trypsin, and resuspended to adjust the cell concentration to 1.5×10⁶˜2×10⁶/mL, added to a 96-well U-plate at 100 μL/well (150,000 to 200,000 cells/well). Washing once with PBS buffer containing 1% fetal bovine serum (FBS). The antibody solution (100 μL/well) with the test concentration prepared in PBS (+1% FBS) was added, mixed with the cells, and incubated at 4° C. for 1 hour. Cells were centrifuged at 200 g and washed once with PBS (+1% FBS). […] Cells were centrifuged at 200 g and washed twice with PBS (+1% FBS), then resuspended in 100 μL of PBS (+1% FBS) for flow cytometric analysis. […] In the study of the effect of heat treatment on the binding properties of antibodies, the antibody to be tested was heat-treated at 70° C. for 5 minutes on a PCR machine, and then incubated with cells for binding.

[2] = biological target: T2, human claudin 18.2 (hCLDN18.2); test: flow cytometry on HEK293-hCLDN18.2 cells; 5 ug/mL; antibody heat treated at 70 C for 5 min
Description: as §1

[3] = biological target: T2, human claudin 18.2 (hCLDN18.2); test: flow cytometry on HEK293-hCLDN18.2 cells; 1 ug/mL; not heat treated
Description: as §1

[4] = biological target: T2, human claudin 18.2 (hCLDN18.2); test: flow cytometry on HEK293-hCLDN18.2 cells; 0.2 ug/mL; antibody heat treated at 70 C for 5 min
Description: as §1

[5] = biological target: T2, human claudin 18.2 (hCLDN18.2); test: flow cytometry on HEK293-hCLDN18.2 cells; 5 ug/mL; not heat treated
Description: as §1

[6] = biological target: T2, human claudin 18.2 (hCLDN18.2); test: flow cytometry on HEK293-hCLDN18.2 cells; 1 ug/mL; antibody heat treated at 70 C for 5 min
Description: as §1

[7] = biological target: T3, mouse claudin 18.1 (mCLDN18.1) (mouse, UniProt P56857 1-264); test: flow cytometry, HEK293-mCLDN18.1 cells, paraformaldehyde-fixed and non-fixed
T3 construct: the lung-type (A1) isoform is meant; also called HEK293-mCLDN18.1

[8] = biological target: T1, mouse claudin 18.2 (mCLDN18.2); test: flow cytometry, HEK293-mCLDN18.2 cells, fixed and non-fixed
[9] = biological target: T2, human claudin 18.2 (hCLDN18.2); test: cell-based or functional assay
[10] = biological target: T2, human claudin 18.2 (hCLDN18.2); test: flow cytometry (direct FACS binding, equilibrium at 4 C) on HEK293-hCLDN18.2 cells
Description: After resuscitation of HEK293 cells (HEK293-hCLDN18.2) stably expressing CLDN18.2, they were cultured and passaged until a certain number of cells were reached. The cells were distributed to 1 mL centrifuge tubes at a density of 5×10⁴/mL, and centrifuged for use. […] To eliminate ligand depletion effects (Ligand Depletion), antibody concentration series were prepared using PBS binding buffer diluted to the corresponding ligand depletion volume. HEK293-hCLDN18.2 cells were mixed and incubated with serial concentrations of antibodies formulated to the ligand elimination volume, and incubated at 4° C. until equilibrium.

[11] = biological target: T2, human claudin 18.2 (hCLDN18.2); test: flow cytometry on hCLDN18.2 low-expressing KATO III cells
Description: as §1

| Binder | FACS binding signal (read-out unnamed) [1] | FACS binding signal (read-out unnamed) [2] | FACS binding signal (read-out unnamed) [3] | FACS binding signal (read-out unnamed) [4] | FACS binding signal (read-out unnamed) [5] | FACS binding signal (read-out unnamed) [6] | binding result [7] | binding result [8] | EC50 [9] | Maximum induction fold [9] | Kd [10] | EC50 [11] |
| --- | --- | --- | --- | --- | --- | --- | --- | --- | --- | --- | --- | --- |
| h5M9V10 humanized antibody (h5M9 VHv4 / h5M9 VLv1) (antibody, human IgG1, kappa, V domains shown, Human IgG1 (G1m17) / kappa) VH: QVQLKESGPGLVAPSETLSITCTVSGFSLTTYGVQWVRQPPGKGLEWLGAIWAGGNTNYNSALMSRLTISKDNSKSQVSLKMSSLTAADTAIYYCAKGGYGNAMDYWGQGTLVTVSS VL: DIVMTQSPSSLAVSLGERATMNCKSSQSLLNSGNQKNYLTWYQQKPGQPPKLLIYWASTRESGVPDRFSGSGSGTDFTLTISSVQAEDLAVYYCQNDYFFPFTFGQGTKLEIKR | 73.7 | 607 | 316 | 70.8 | 599 | 292 |  |  |  |  |  |  |
| h5M9V7 humanized antibody (h5M9 VHv3 / h5M9 VLv1) (antibody, human IgG1, kappa, V domains shown, Human IgG1 (G1m17) / kappa) VH: QVQLKESGPGLVAPSETLSITCTVSGFSLTTYGVQWVRQPPGKGLEWLGAIWAGGNTNYNSALMSRLTISKDNSKSQVSLKMSSVTAADTAIYYCAKGGYGNAMDYWGQGTLVTVSS VL: DIVMTQSPSSLAVSLGERATMNCKSSQSLLNSGNQKNYLTWYQQKPGQPPKLLIYWASTRESGVPDRFSGSGSGTDFTLTISSVQAEDLAVYYCQNDYFFPFTFGQGTKLEIKR | 84.3 | 732 | 296 | 73.3 | 631 | 294 |  |  |  |  |  |  |
| h5M9V12 humanized antibody (h5M9 VHv4 / h5M9 VLv3) (antibody, human IgG1, kappa, V domains shown, Human IgG1 (G1m17) / kappa) VH: QVQLKESGPGLVAPSETLSITCTVSGFSLTTYGVQWVRQPPGKGLEWLGAIWAGGNTNYNSALMSRLTISKDNSKSQVSLKMSSLTAADTAIYYCAKGGYGNAMDYWGQGTLVTVSS VL: DIVMTQSPSSLAVSLGERVTMNCKSSQSLLNSGNQKNYLTWYQQKPGQPPKLLIYWASTRESGVPDRFTGSGSGTDFTLTISSVQAEDLAVYYCQNDYFFPFTFGSGTKLEIKR | 103 | 673 | 419 | 90 | 589 | 411 |  |  |  |  |  |  |
| 163E12 human-mouse chimeric positive control antibody (antibody, V domains shown, Self-made, expressed in CHOS cells, Protein A purified; also called Benchmarker; Benchmark) VH: QIQLVQSGPELKKPGETVKISCKASGYTFTNYGMNWVKQAPGKGLKWMGWINTNTGEPTYAEEFKGRFAFSLETSASTAYLQINNLKNEDTATYFCARLGFGNAMDYWGQGTSVTVSS VL: DIVMTQSPSSLTVTAGEKVTMSCKSSQSLLNSGNQKNYLTWYQQKPGQPPKLLIYWASTRESGVPDRFTGSGSGTDFTLTISSVQAEDLAVYYCQNDYSYPLTFGAGTKLELKR |  |  |  |  |  |  | no binding | binds | 0.0195 ng/mL | 36.3 fold | 0.137 nM |  |
| 175D10 human-mouse chimeric positive control antibody (antibody, V domains shown, Self-made, expressed in CHOS cells, Protein A purified; also called Benchmark) VH: QVQLQQPGAELVRPGASVKLSCKASGYTFTSYWINWVKQRPGQGLEWIGNIYPSDSYTNYNQKFKDKATLTVDKSSSTAYMQLSSPTSEDSAVYYCTRSWRGNSFDYWGQGTTLTVSS VL: DIVMTQSPSSLTVTAGEKVTMSCKSSQSLLNSGNQKNYLTWYQQKPGQPPKLLIYWASTRESGVPDRFTGSGSGTDFTLTISSVQAEDLAVYYCQNDYSYPFTFGSGTKLEIKR | 81.3 | 600 | 318 |  | 567 | 296 |  |  |  |  | 0.189 nM | 800 ng/mL |
| 5-M9 human-mouse chimeric monoclonal antibody (antibody, human IgG1, V domains shown, Mouse V regions fused to human IgG1 (G1m17) heavy chain constant region and human kappa light chain constant region; also called 5-M9-A; Chi 5-M9) VH: QVQLKESGPVLVAPSQSLSITCTVSGFSLTTYGVQWVRQPPGKGLEWLGAIWAGGNTNYNSALMSRLSISKDNSKSQVFLKMNSLQTDDTAIYYCAKGGYGNAMDYWGQGTSVTVAS VL: DIVMTQSPSSLTVTAGERVTMSCKSSQSLLNSGNQKNYLTWYQQKSGQPPKLLIYWASTRESGVPDRFTGSGSGTDFTLTISSVQAEDLAVYYCQNDYFFPFTFGSGTKLEIK | 83 | 746 | 341 | 75.6 | 638 | 289 |  |  | 0.000287 ng/mL | 40 fold | 0.048 nM |  |
| h5M9v9 humanized antibody (h5M9 VHv3 / h5M9 VLv3) (antibody, V domains shown, Human IgG1 (G1m17) heavy and human kappa light constant regions) VH: QVQLKESGPGLVAPSETLSITCTVSGFSLTTYGVQWVRQPPGKGLEWLGAIWAGGNTNYNSALMSRLTISKDNSKSQVSLKMSSVTAADTAIYYCAKGGYGNAMDYWGQGTLVTVSS VL: DIVMTQSPSSLAVSLGERVTMNCKSSQSLLNSGNQKNYLTWYQQKPGQPPKLLIYWASTRESGVPDRFTGSGSGTDFTLTISSVQAEDLAVYYCQNDYFFPFTFGSGTKLEIK | 66.8 | 636 | 291 | 59.2 | 589 | 242 |  |  |  |  |  |  |
| 9-D1 human-mouse chimeric monoclonal antibody (antibody, human IgG1, V domains shown, Mouse V regions fused to human IgG1 (G1m17) heavy chain constant region and human kappa light chain constant region; also called 9-D1-A) VH: EIQLQQSGAELVKPGASVKISCKASGYSFTDYHMNWVRQSHGKSLEWIGNIDPYYGSPTYNHKFKGKATLTVDKSSSTAYMQLISLTSEDSAVYYCANYGRGNSFPYWGQGTLVTVSA VL: DIVMTQSPSSLTVTAGEKVTMSCKSSQSLLNSGNQRNYLTWYQQKPGQPPKLLLYWASTRESGVPDRFTGSGSGTDFTLTISSVQAEDLAVYYCQNDYSFPFTFGSGTKLEIK |  |  |  |  |  |  |  |  | 0.0074 ng/mL | 35 fold | 0.049 nM |  |
